Legend:
[1] = molecular target: Kluyveromyces marxianus GCN2 HRSL domain (residues 996-1511) (Kluyveromyces marxianus); assay: SEC
[2] = molecular target: ΔN-terminal GCN2 HRSL, mutant Δ(V996-N1009) of Kluyveromyces marxianus GCN2 HRSL (Kluyveromyces marxianus); assay: SEC

stoichiometry N [1] | stoichiometry N [2] | Substance
2 | – | Kluyveromyces marxianus GCN2 HRSL domain (residues 996-1511) (domain or fragment)
– | 2 | ΔN-terminal GCN2 HRSL, mutant Δ(V996-N1009) of Kluyveromyces marxianus GCN2 HRSL (domain or fragment)

Source: doi:10.1101/2024.04.24.591037
